T1: purified Wnt5a protein (mouse) (mouse, UniProt P22725 62-380)
T1 construct: Wnt5a, mouse; The protein needs detergent to stay in solution; also called mWnt5a
T1 sequence (looked up): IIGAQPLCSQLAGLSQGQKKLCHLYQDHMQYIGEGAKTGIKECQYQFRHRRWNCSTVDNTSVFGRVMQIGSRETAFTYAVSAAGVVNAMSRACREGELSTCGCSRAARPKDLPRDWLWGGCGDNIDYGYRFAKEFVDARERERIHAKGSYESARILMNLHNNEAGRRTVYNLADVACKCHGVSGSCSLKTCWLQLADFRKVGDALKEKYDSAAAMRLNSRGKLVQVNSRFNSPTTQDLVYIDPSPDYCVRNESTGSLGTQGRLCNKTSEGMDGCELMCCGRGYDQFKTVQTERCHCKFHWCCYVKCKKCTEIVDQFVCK

B1: mRor2 CRD-IgG (Fc fusion)
chain: not shown
notes: source: 293 cells stably secreting the protein, purified from serum-free conditioned media (protein A column); not shown: immunoglobulin heavy chain domain (IgG), C-terminal, kept
B2: mRor2 NT CRD-IgG (Fc fusion)
chain: not shown
notes: signal peptide in the construct; source: 293 cells stably secreting the protein, purified from serum-free conditioned media (protein A column); not shown: immunoglobulin heavy chain domain (IgG), C-terminal, kept

Target: T1, purified Wnt5a protein (mouse)
Experiment: pull-down; purified CRD-IgG proteins bound to protein A-Sepharose beads (4 h, 4 °C), incubated overnight at 4 °C with purified Wnt5a protein, washed 4 times with TNT buffer (50 mM Tris-HCl, 150 mM NaCl, 1% Triton X-100), Western blot
Details: both partners purified

| Binder | binding result |
| --- | --- |
| B1 | binds |
| B2 | binds |

Reference: paper PMC1420652, “Purified Wnt5a Protein Activates or Inhibits β-Catenin–TCF Signaling Depending on Receptor Context” (PLoS Biology, 2006)
